Here are results for ten molecules from US20230322953A1 (HARBOUR BIOMED SHANGHAI, published 2023).

Residue numbers refer to the chain shown, from its start.

For experiment [1], the target named is T1, human CD3 (TCR/CD3 complex) on human T cells (human, UniProt P07766 23-207).
T1 construct: whole, on cells
Briefly: flow cytometry (FACS) on human T cells, Experiment 1. (A flow cytometer gives signals particle by particle.)
Experimental: (§1) The binding ability of the antibody molecules to human or cynomolgus monkey T cells was tested by flow cytometry FACS. […] The T cell density was adjusted to 1×10⁶ cells/mL. […] The cells were incubated at 4° C. for 1 h away from light. Then, the cells in each well were rinsed twice with 100 μL of pre-cooled PBS, and centrifuged at 500 g at 4° C. for 5 min, and then the supernatant was discarded. […] The cells in each well were rinsed twice with 100 μL of pre-cooled PBS, and centrifuged at 500 g at 4° C. for 5 min, and then the supernatant was discarded. Finally, the cells in each well were resuspended in 200 μL of pre-cooled PBS. Fluorescence signal values were read using a BD FACS CANTOII flow cytometer or an ACEA NovoCyte flow cytometer, and the data were processed and analyzed using FlowJo v10 (FlowJo, LLC) software. The data were processed and analyzed by plotting using GraphPad Prism 8 software, and binding curves of the antibodies to target cells, EC₅₀ values and other parameters were obtained through four-parameter nonlinear fitting.

For a further experiment, the target named is T2, human BCMA (human, UniProt Q02223 1-184).
T2 construct: whole, on cells; the cell line is named under assay; also called TNFRSF17; CD269
T2 sequence (looked up): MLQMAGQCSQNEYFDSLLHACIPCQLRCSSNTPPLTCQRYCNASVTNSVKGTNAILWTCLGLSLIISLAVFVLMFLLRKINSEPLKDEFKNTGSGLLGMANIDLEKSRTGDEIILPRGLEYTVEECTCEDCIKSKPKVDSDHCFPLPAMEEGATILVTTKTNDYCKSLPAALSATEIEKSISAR
The experiment is described as follows: flow cytometry, NCI-H929 cells.

The target in experiment [2] is T3, biotinylated human BCMA-Fc, Avitag recombinant protein (ACRO Biosystems, #BC7-H82F0) (human, UniProt Q02223 1-54, biotinylated).
T3 construct: extracellular domain; Bought protein; also called human BCMA protein; recombinant human BCMA-ECD-Fc; not shown: Fc of the bought fusion protein; Avitag
T3 sequence (looked up): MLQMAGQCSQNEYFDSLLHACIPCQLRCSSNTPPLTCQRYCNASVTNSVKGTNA
Briefly: BLI (Octet Red96e), biotinylated BCMA-Fc on SA sensor, antibody in solution, 1:1 global fit. (In general: Biolayer interferometry detects binding as a change in optical thickness at a sensor tip.)

Experiment [3] addresses T1, human CD3 (TCR/CD3 complex) on human T …. Briefly: flow cytometry (FACS) on human T cells, Experiment 2.
Experimental: as §1

T1 sequence (P07766 23-207, one chain of several): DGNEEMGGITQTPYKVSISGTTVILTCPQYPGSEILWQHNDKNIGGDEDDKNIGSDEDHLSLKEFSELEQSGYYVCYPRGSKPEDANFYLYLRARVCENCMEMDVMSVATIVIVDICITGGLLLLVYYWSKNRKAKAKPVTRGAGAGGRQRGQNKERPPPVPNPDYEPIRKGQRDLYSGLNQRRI

B1: PR001994 (bispecific antibody, human IgG1, kappa, L234A L235A)
chain 1: EVQLLESGGGLVQPGGSLRLSCAASGFTFNTYAMNWVRQAPGKGLEWVSRIRSKYNNYATYYADSVKDRFTISRDDSKSTLYLQMNSLRAEDTAVYYCVRHGNFGNSYVSWFAYWGQGTLVTVSSRTVAAPSVFIFPPSDEQLKSGTASVVCLLNNFYPREAKVQWKVDNALQSGNSQESVTEQDSKDSTYSLSSTLTLSKADYEKHKVYACEVTHQGLSSPVTKSFNRGEC
chain 2: QAVVTQEPSLTVSPGGTVTLTCRSSTGAVTTSNYANWVQQKPGQAPRGLIGGTNKRAPWTPARFSGSLLGDKAALTLLGAQPEDEAEYFCALWYSNLWVFGGGTKLTVLSSASTKGPSVFPLAPSSKSTSGGTAALGCLVKDYFPEPVTVSWNSGALTSGVHTFPAVLQSSGLYSLSSVVTVPSSSLGTQTYICNVNHKPSNTKVDKKVEPKSCDKTHTCPPCPAPEAAGGPSVFLFPPKPKDTLMISRTPEVTCVVVDVSHEDPEVKFNWYVDGVEVHNAKTKPREEQYNSTYRVVSVLTVLHQDWLNGKEYKCKVSNKALGAPIEKTISKAKGQPREPQVYTLPPCREEMTKNQVSLWCLVKGFYPSDIAVEWESNGQPENNYKTTPPVLDSDGSFFLYSKLTVDKSRWQQGNVFSCSVMHEALHNHYTQKSLSLSPGK
chain 3: EVQLVETGGGLIQPGGSLRLSCAASGFTVSDNYMTWVRQAPGKGLEWVSVIFSGGNTYYADSVKGRFTISRDNAKNTLYLQMNSLRAEDTALYYCARRNYDDTRGTDVFDIWGQGTMVTVSSASEPKSSDKTHTCPPCPAPEAAGGPSVFLFPPKPKDTLMISRTPEVTCVVVDVSHEDPEVKFNWYVDGVEVHNAKTKPREEQYNSTYRVVSVLTVLHQDWLNGKEYKCKVSNKALGAPIEKTISKAKGQPREPQVCTLPPSREEMTKNQVSLSCAVKGFYPSDIAVEWESNGQPENNYKTTPPVLDSDGSFFLVSKLTVDKSRWQQGNVFSCSVMHEALHNHYTQKSLSLSPGK
notes: Structure 12 (Fab(cross VH/VL)-Fc-VH): CD3 Fab from PR000511, BCMA VH from PR001046; IgG1 knob/hole, AAG
As to B1, the “Maximum MFI” value in experiment [1] is 3380 MFI.

B2: PR000940, anti-BCMA HCAb antibody, clone 1005P10H8 (antibody, human IgG1, V domains shown)
VH: EVQLLESGGGLVQPGGSLRLSCAASGFTFSSYAMIWVRQAPGKGLEWVSGISESGGSTYYADSVKGRFTISRDNSKNTLYLQMNSLRAEDTAVYFCVKDLDDILTGYYKDYWGQGTLVTVSS
notes: Heavy-chain-only antibody (HCAb), human IgG1 Fc, no light chain
What is called EC50 is the concentration that produces a half-maximal response. The low end stands for higher potency in that assay, the high end for lower potency in that assay. The Kd is a measure of binding affinity in units of concentration. The koff is the rate constant with which the complex falls apart. Usually kon stands for a measure of how fast the partners come together. Turning to B2, in the experiment with human BCMA, the concentration giving a half-maximal response (EC50) turned out to be 1850 pM and the “Maximum MFI” value turned out to be 91000. Also, in experiment [2], the Kd was found to be 152 pM, the koff came to 6.09e-05 s⁻¹ and the kon is 401000 M⁻¹ s⁻¹.

B3: PR001987 (bispecific antibody, human IgG1, lambda, L234A L235A)
light: QAVVTQEPSLTVSPGGTVTLTCRSSTGAVTTSNYANWVQQKPGQAPRGLIGGTNKRAPWTPARFSGSLLGDKAALTLLGAQPEDEAEYFCALWYSNLWVFGGGTKLTVLGQPKAAPSVTLFPPSSEELQANKATLVCLISDFYPGAVTVAWKADSSPVKAGVETTTPSKQSNNKYAASSYLSLTPEQWKSHRSYSCQVTHEGSTVEKTVAPTECS
heavy: EVQLLESGGGLVQPGGSLRLSCAASGFTFNTYAMNWVRQAPGKGLEWVSRIRSKYNNYATYYADSVKDRFTISRDDSKSTLYLQMNSLRAEDTAVYYCVRHGNFGNSYVSWFAYWGQGTLVTVSSASTKGPSVFPLAPSSKSTSGGTAALGCLVKDYFPEPVTVSWNSGALTSGVHTFPAVLQSSGLYSLSSVVTVPSSSLGTQTYICNVNHKPSNTKVDKKVEPKSCDKTHTCPPCPAPEAAGGPSVFLFPPKPKDTLMISRTPEVTCVVVDVSHEDPEVKFNWYVDGVEVHNAKTKPREEQYNSTYRVVSVLTVLHQDWLNGKEYKCKVSNKALGAPIEKTISKAKGQPREPQVYTLPPCREEMTKNQVSLWCLVKGFYPSDIAVEWESNGQPENNYKTTPPVLDSDGSFFLYSKLTVDKSRWQQGNVFSCSVMHEALHNHYTQKSLSLSPGK
chain: EVQLLESGGGLVQPGGSLRLSCAASGFTFSSYAMIWVRQAPGKGLEWVSGISESGGSTYYADSVKGRFTISRDNSKNTLYLQMNSLRAEDTAVYFCVKDLDDILTGYYKDYWGQGTLVTVSSASEPKSSDKTHTCPPCPAPEAAGGPSVFLFPPKPKDTLMISRTPEVTCVVVDVSHEDPEVKFNWYVDGVEVHNAKTKPREEQYNSTYRVVSVLTVLHQDWLNGKEYKCKVSNKALGAPIEKTISKAKGQPREPQVCTLPPSREEMTKNQVSLSCAVKGFYPSDIAVEWESNGQPENNYKTTPPVLDSDGSFFLVSKLTVDKSRWQQGNVFSCSVMHEALHNHYTQKSLSLSPGK
notes: Structure 11 (Fab-Fc-VH): CD3 Fab from PR000511, BCMA VH from PR000940; human IgG1 knob/hole, AAG; also called BCMA×CD3 bispecific antibody molecule of Fab-Fc-VH asymmetric structure
B3: in experiment [1], the “Maximum MFI” value amounted to 5160 MFI.

B4: PR001988 (bispecific antibody, human IgG1, lambda, L234A L235A)
light: B3 light
heavy: B3 heavy
chain: EVQLVETGGGLIQPGGSLRLSCAASGFPVSSNYMSWVRQAPGKGLEWVSVIFSGGRTYYADSVKGRFTISRDNSKNTLYLQMNSLRAEDTAVYYCARRNWIDGRDAFDIWGQGTMVTVSSASEPKSSDKTHTCPPCPAPEAAGGPSVFLFPPKPKDTLMISRTPEVTCVVVDVSHEDPEVKFNWYVDGVEVHNAKTKPREEQYNSTYRVVSVLTVLHQDWLNGKEYKCKVSNKALGAPIEKTISKAKGQPREPQVCTLPPSREEMTKNQVSLSCAVKGFYPSDIAVEWESNGQPENNYKTTPPVLDSDGSFFLVSKLTVDKSRWQQGNVFSCSVMHEALHNHYTQKSLSLSPGK
notes: Structure 11 (Fab-Fc-VH): CD3 Fab from PR000511, BCMA VH from PR000943; human IgG1 knob/hole, AAG
For B4, in experiment [1], the “Maximum MFI” value came out at 5800 MFI.

B5: PR001995 (bispecific antibody, IgG1)
chain 1: EVQLLESGGGLVQPGGSLRLSCAASGFTFNTYAMNWVRQAPGKGLEWVSRIRSKYNNYATYYADSVKDRFTISRDDSKSTLYLQMNSLRAEDTAVYYCVRHGNFGNSYVSWFAYWGQGTLVTVSSASTKGPSVFPLAPSSKSTSGGTAALGCLVKDYFPEPVTVSWNSGALTSGVHTFPAVLQSSGLYSLSSVVTVPSSSLGTQTYICNVNHKPSNTKVDKKVEPKSC
chain 2: QAVVTQEPSLTVSPGGTVTLTCRSSTGAVTTSNYANWVQQKPGQAPRGLIGGTNKRAPWTPARFSGSLLGDKAALTLLGAQPEDEAEYFCALWYSNLWVFGGGTKLTVLGQPKAAPSVTLFPPSSEELQANKATLVCLISDFYPGAVTVAWKADSSPVKAGVETTTPSKQSNNKYAASSYLSLTPEQWKSHRSYSCQVTHEGSTVEKTVAPTECSDKTHTCPPCPAPEAAGGPSVFLFPPKPKDTLMISRTPEVTCVVVDVSHEDPEVKFNWYVDGVEVHNAKTKPREEQYNSTYRVVSVLTVLHQDWLNGKEYKCKVSNKALGAPIEKTISKAKGQPREPQVYTLPPCREEMTKNQVSLWCLVKGFYPSDIAVEWESNGQPENNYKTTPPVLDSDGSFFLYSKLTVDKSRWQQGNVFSCSVMHEALHNHYTQKSLSLSPGK
chain 3: B3 chain
notes: CD3 Fab from PR000511, BCMA VH from PR000940; IgG1 knob/hole, AAG
Take B5: the “Maximum MFI” value in experiment [3] turned out to be 2920 MFI.

B6: PR001991 (bispecific antibody, human IgG1, kappa, L234A L235A)
chain 1: B1 chain 1
chain 2: B1 chain 2
chain 3: B3 chain
notes: as for B5
Regarding B6, in experiment [1], the “Maximum MFI” value was determined as 3240 MFI.

B7: PR001989 (bispecific antibody, human IgG1, lambda, L234A L235A)
light: B3 light
heavy: B3 heavy
chain: B4 chain with P28T, S35T, R56S, N99I, W100A, I101V, D102A, R104H, A106V
notes: Structure 11 (Fab-Fc-VH): CD3 Fab from PR000511, BCMA VH from PR001035; human IgG1 knob/hole, AAG
For the molecule B7, in experiment [1], the “Maximum MFI” value was 6680 MFI.

B8: PR001996 (bispecific antibody, IgG1)
chain 1: B5 chain 1
chain 2: B5 chain 2
chain 3: B4 chain
notes: Structure 13 (Fab(cross Fd/LC)-Fc-VH): CD3 Fab from PR000511, BCMA VH from PR000943; IgG1 knob/hole, AAG
Regarding B8, the “Maximum MFI” value in experiment [3] came out at 3440 MFI.

B9: PR001992 (bispecific antibody, human IgG1, kappa, L234A L235A)
chain 1: B1 chain 1
chain 2: B1 chain 2
chain 3: B4 chain
notes: Structure 12 (Fab(cross VH/VL)-Fc-VH): CD3 Fab from PR000511, BCMA VH from PR000943; IgG1 knob/hole, AAG
For the molecule B9, in experiment [1], the “Maximum MFI” value is 2240 MFI.

B10: PR001993 (bispecific antibody, human IgG1, kappa, L234A L235A)
chain 1: B1 chain 1
chain 2: B1 chain 2
chain 3: B4 chain with P28T, S35T, R56S, N99I, W100A, I101V, D102A, R104H, A106V
notes: Structure 12 (Fab(cross VH/VL)-Fc-VH): CD3 Fab from PR000511, BCMA VH from PR001035; IgG1 knob/hole, AAG
With B10, the “Maximum MFI” value in experiment [1] was found to be 4780 MFI.
